Measured values from the supplement of paper PMC10567573.

B1: NCK2 (parent)
chain: YVERKNSLKKGSLVKNLKDTLGLG
B2: TMEM106C (parent)
chain: TVPEILVHNIVIFMRTSVKISYIG

Variants of: B1
Assay: protein stability index of a GFP-peptide fusion (GPS, HEK-293T) (PSI 1-6); higher = more stable
Conditions: c terminus: a fixed tail appended
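Further: lentivirally expressed fusions sorted by FACS into six bins by GFP to DsRed ratio, PSI derived from sequencing read proportions per bin multiplied by bin number.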

Protein stability index: each site, then its substitutions
G24: W 1.97; Q 2.59; I 1.8; P 2.28; S 2.58; R 2.19; Y 1.67; M 2.09; N 1.98; L 1.28; V 1.67; H 2.43; K 2.13; T 2.36

Variants of: B2
Assay: as above
Conditions: c terminus: a fixed tail appended

Protein stability index: each site, then its substitutions
T16: Y 3.88; L 3.11; R 2.5; Q 2.46
S17: G 2.1; A 4.19; Y 3; H 2.76; D 2.48; M 2.69
N9: K 2.02; Q 2.95; Y 2.44; S 2.31; A 2.89; V 2.49; E 2.96; G 2.98; L 3.14; F 2.06; T 2.49; D 3.55; W 3.74
H8: R 2.67; P 3.19; N 3.21; I 2.58; S 3.74
I20: V 1.4; K 3.3; F 3.1; N 1; T 3.24; Q 4.14; S 3.33
E4: H 2.29; M 4.55; Q 2.61; Y 2.81; N 2.99
I5: N 2.34; F 3.14; L 2.94; T 3.88; Q 3.61; A 2.92; M 2.67; S 2.36
F13: M 2.42; G 3.8; Q 2.96; H 2.11; A 3.07; K 3.49; D 2.85
R15: D 2.57; C 2.91; G 3.23; E 1.63; V 3.67
K19: P 2.88; L 3.2; G 2.77; Y 3.12; C 4.43; I 3.18; M 1.77
Y22: S 2.31; K 2.86; W 2.65; M 3.99; F 2.35; C 2.5
V2: P 3.94; L 3.28; W 2; C 2.31
M14: S 4.03; H 2.91; V 2.68; C 2.99; A 3.73; Y 2.6
I12: S 2.88; K 2.81; H 3.33; G 3.97; D 3.93
I23: T 3.01; C 2.41; H 1.77; M 3.06; R 2.81; G 2.88; D 3.85
T1: L 2.03; S 3.42; D 1.51
V18: E 2.77; D 2.15; Y 4.01; Q 3.31; F 2.33; K 2.77; G 2.88; A 4.48; W 2.45
L6: G 3.13; N 2.24; F 2.25; R 4.09; I 2.59; Q 2.44; S 2.77; K 2.5; Y 2.26
S21: D 2.53; H 2.81; F 3.13; G 1.99
V7: F 2.51; N 2.83; G 3.49; T 2.15; L 2.24; E 4.49; P 3.59; H 3.09
V11: W 2.85; N 2.86; S 3.97; L 1.78; F 4.1; A 4.26; R 2.22; H 3.13
I10: Q 2.94; K 4.3; W 3.61; C 2.67; R 2.42
P3: I 1.79; L 1.85; C 2.32; S 3.98
G24: E 3.36; F 3.89; S 3.61; T 2.06; Y 2.61; M 3.57; A 2.22; I 3.38
